Source: US20260132219A1

Legend:
human HER3 = human HER3 (UniProt P21860); assay: BLI; absence of human NRG1
human HER3 (human) = human HER3 (human) (UniProt Q02297); assay: BLI; presence of human NRG1

Kd (human HER3): < 0.001 nM
Kd (human HER3 (human)): 16.8 nM
Substance: LJM-716
